This series is described as follows: soluble on expression in E. coli; label from the status in PepcDB or PDB records.
In the case of “MIGIVMLSKIANIDAARQGLDLKVKVLSLNKKTIKNDRGETTYFYGIIGDDTGTVSFTAWSFPAAVKSGDVVEIKNCYSSLYNGKIRIYVDSRSQVVLKPDEYLEVKRTVELVKLRDLSLTTPYVSVIGRISGIKEKNYDSDRGSKIVYQGFIEDETAKVRISSFGKPLKDGEIVRVENARVSQYNGYMGISIGENSSIDNVQAQIEVGSRPIFIAEIKSPIGGVTITGFAVSVGQGSRIFTKCSICKKILEDGKCKDHPRAPVYLDIFGYFLLSDGTGSLTCYLNKDSFLPYIKMDTEEFKSQAFSMNPNMLIKKNILGKCLSVTGDLRLRDDKITMNASSIKEADADSVKDIEKTIQEEFQLEHHHHHH”, the “soluble on expression in E. coli” value was “not soluble”.

For “MIGNILVAHGMRKGNQNEALEEFIGTLLKDEQYYYELAFLESETQNLEIIMEKMIKQGITKFRIVPLLIFSAMHYISDIPQILKEMKARYPQIDSKMSAPLGTHPYMKTLVENRIAEEKVSEGSTKATIVIAHGNGSGRFTKAHDELKAFVKTLDSHHPVYARALYGTLAFKNDLDKISEQYDELVIVPLFLFDGRLVNKVKRLLGEMTLHSQLHITPSINFDPILRLIIRERLEALDILEHHHHHH”, the “soluble on expression in E. coli” value is “soluble”.

For the sequence “MIHLARRRIVLTTPYFVPDEATLSALRIAGTSGVDVQLILSESNNQFLMAWAQEAYFEELLRAGIKIALYRPHFLHAKHLSVDDDIALFGSINLDIRSFALNAEIGMICYDSRIVTQLREVESDYLANARQLNLVEWQQRPAWRRSREGIARLADALM”, the “soluble on expression in E. coli” value is “not soluble”.

Turning to “MIHVGTCGFCEAREKYFKDFDAVEVQQTFYKVLQEKTLERWRKKAPEEFTFSIKAFQGVTHPSNSPTWRRSNVKPSKNVGLLRPTNEVLHYWRITLKEAKVLGARFILIQLPRSFKEGEESFENAEKFFNAIDRGDFEIGVELRGWSEKGVKRFVREFDVIDVTDPLLRIPLHKGSVNYYRLHGKYEGGKIIYNHSYSDEELKKIRERVLGWNVEESFVFFNNTSMCRDAKRFKLILDLH”, the “soluble on expression in E. coli” value is “soluble”.

As for “MIIDIHGHYTTAPKALEDWRNRQIAGIKDPSVMPKVSELKISDDELQASIIENQLKKMQERGSDLTVFSPRASFMAHHIGDFNVSSTWAAICNELCYRVSQLFPDNFIGAAMLPQSPGVDPKTCIPELEKCVKEYGFVAINLNPDPSGGHWTSPPLTDRIWYPIYEKMVELEIPAMIHVSTSCNTCFHTTGAHYLNADTTAFMQCVAGDLFKDFPELKFVIPHGGGAVPYHWGRFRGLAQEMKKPLLEDHVLNNIFFDTCVYHQPGIDLLNTVIPVDNVLFASEMIGAVRGIDPRTGFYYDDTKRYIEASTILTPEEKQQIYEGNARRVYPRLDAALKAKGKAAALEHHHHHH”, the “soluble on expression in E. coli” value is “not soluble”.

Turning to “MIIGLLNQKGGVGKTTLSVNLAASFARTGARVLLIDVDPQGSALDWAAAREGAPLFPVVGLPRATVHKEITQIGHNYDHIIIDGPPRVTDLARSALMASDFVLIPVQPSPYDIWAADGIVKLIDEARVYKENLKSAFVINRKIVNTAIGRDVGEALGVYPVHVLSANVAQRVIFAEAATQGKTVYEVDKQGLAAAEIEAVAAEIKELAQLEHHHHHH”, the “soluble on expression in E. coli” value is given as “not soluble”.

In the case of “MIIRETERLILREWKESDRDLFREINADEKVMEFFPFRRSHAEADAVLETINGMIRGSGYGFYAMELRETGEVMGFCGISPVMNLDPPFPIGTMEIGWRLATRFWGHGYVTEAAQSLLVMAFDEKETPEIVSFAVHDNHRSTAVMERIGLRRDPSRDFDHPRVPEETHPHLRPHVTYALTLEEWRAR”, the “soluble on expression in E. coli” value was “not soluble”.

Regarding “MIITVASFKGGVGKTTTAVHLSAYLALQGETLLIDGDPNRSATGWGKRGSLPFKVVDERQAAKYAPKYQNIVIDTQARPEDEDLEALADGCDLLVIPSTPDALALDALILTIETLQKLGNNRFRILLTIIPPYPSKDGDEARQLLTTAGLPLFKRGIKRYSAFQKASLNGVVVSEVSDSKAGIAWSDYKATGKEIVEEILILEHHHHHH”, the “soluble on expression in E. coli” value was “soluble”.

Turning to “MIKDILNTIASLVEENVVVFASERGKQLLQKVKADLVSFKPINFYALDAGKQITDALKLIESYCIEMNRIFDELNHQSSVSLANEKLTHKIKNILTNLKNKQNKITQLREKIPEGMLDIKRALYIVENSFLSESEPEEKELRSKFKRIKKFMSNSNKEYLDLIKKGGLLNTVLLDTTTLYWNQLHEYSTLLNQCRITLQKSHHLTKEGQLALRCFNSAIQKMPPKKHIINALKILNKPNSKTEAIEKIGFVSPHGREACMQLTCWGKKFFYIPRSEEMYHFDYDPKEDLNETGGNCFGESMMFIHFLSKGAIRWLCPEAGLINFQLDQTRNLKFKKATLGEGETLVSDNSPHDSLEWEDMRPVLLDNPYFKPGSLCGVIFSMNDYTKAKREFTAGHMIVVAKLDTNLNPYKYIIYEKDFGAFGLTDDESLEYLISEQILPLYRGMNYSKIKLVKYGEASTETYDLLNKIKPQTGIPQKESTASDSINTYFDNAFFKLSKETNKENVIDQVNQTDVFGFCRN”, the “soluble on expression in E. coli” value is “not soluble”.

For “MIKDQDAEFHVTDSDPTWAETNFFGFFNAEHKLNVGVYALFRPNLGVVSSTICMNSGRAVTPWEADFCDLRSAMPIPTPRSLLDYKLLNTLHVHCLDPNRVWHIGYDDQQGTRIDVRYEALMPAFDIHDPEMDPMCGSESEAGKFAWGTAYDGHFDQTGHFKGSVAIRGREVPIDCVSTMDHSWGARPERGKPNMSWLHAHFSKDLAVHGIFGFDQTRNGVELWLAHGYVMERGRIVGLKAGTGQVERPQERYPEQLQLQVTDAKDRVWKLRGRALTTFPWQCWPNMISFNSLCAWEMNGLKGHGEVQDFFELPQLNALNSVESTRRPSRPL”, the “soluble on expression in E. coli” value is “not soluble”.

“MIKFGTGGWRAFIGEEFTKDNVRLVAQALANIIHHEQAANEGFVIGYDRRFLSDKAGRWFAEVLAANGVVVSFIDKFVPTPVVMFKAKAMDCAYSACITASHNPADYNGIKVFIRGGRDADEVITQKIEQQIATLTLQDVKSIDFDQAVNDKLIDIINPMNEFVDSIINFIDIEAIKKANLRVLIDPMFGVAKNALQTVLINGRCDVDVINDGKNPDFGGLMPSPSAATLYRLKHLVKHEGYDIGIGTDGDADRLGIIDEKGNFIHPNEVLILLYYYLLEYKGWKGSVVRNIATTHLLDKIAADHGERCFEVPVGFKHISSQMEADDSLIGGESSGGLTIRGHIKGKDGVFASSLLVEMISVTGKKLSELLTEIYDRYGYAYTAEGDCKFKPAQRDEIYNKVYIEKKLPEFEFDIDKVSYEDGAKVYFKNGGWVIARFSGTEPLLRIFAEMADKDTAERVLQQMKAFLAL”: the “soluble on expression in E. coli” value is “not soluble”.

On to “MIKFYQYKNCTTCKKAAKFLDEYGVSYEPIDIVQHTPTINEFKTIIANTGVEINKLFNTHGAKYRELDLKNKLQTLSDDEKLELLSSDGMLVKRPLAVMGDKITLGFKEDQYKETWLA”, for which the “soluble on expression in E. coli” value is given as “not soluble”.

Take “MIKHLVAPLVFTSLILTGCQSPQGKFTPEQVAAMQSYGFTESAGDWSLGLSDAILFAKNDYKLLPESQQQIQTMAAKLASTGLTHARMDGHTDNYGEDSYNEGLSLKRANVVADAWAMGGQIPRSNLTTQGLGKKYPIASNKTAQGRAENRRVAVVITTP”: the “soluble on expression in E. coli” value was “not soluble”.

With “MIKIDNVKKFYTDKVKIGPLDIEIPKAGFTSLIGPNGAGKSTTLLMIGRLLDMDEGQIQVANMDVSESKSKDLAKVLTILRQENHFVTRLTVRQLVGFGRFPYSKGRLTKEDEVIISKYIDFLDLTNLENRYLDELSGGQRQRAYVAMVLCQETEYVLLDEPLNNLDVARSVQMMEHLRRAANEFGRTILTVMHDINFAAKYSDKICAMKDGQIAAFGTVEEVMDSTLLTDIFETRIEIIKGPYGPIAVY”, the “soluble on expression in E. coli” value is recorded as “not soluble”.

As to “MIKLTVSHHKLTASGHALFAKKGQDIVCAAVSGIIFGALPWFETNSIAVQEDATVPSLSLELVQPTAKLITGLSVVIMQLKTLAHSYPQFISFEDQRKDE”, the “soluble on expression in E. coli” value is reported as “soluble”.

“MIKNGTLKPGDKLLPVHQLAEQFQVGRSAVREALSALRAMGLIEMKQGEGTYVKNFDSSSLTKSLNNRLLMKKEDILNLLEVRKVLEVGAVRVAAAKRTEDNLQNMKHWLDEMAKSIGDEKAGEKADFQFHMGIAESSHNNILLELMNHVSEMIAETIGESRRIILYGEQTTSERLIEEHQVIYDAVLKQDVELAQQAMLDHLTNVEHIVTGKNDINS”: the “soluble on expression in E. coli” value is “not soluble”.

Take “MILGIDIGGANTKITELHENGEFKVHHLYFPMWKNNDKLAEVLKTYSNDVSHVALVTTAELADSYETKKEGVDNILNAAESAFGSNISVFDSNGNFISLESAKTNNMKVSASNWCGTAKWVSKNIEENCILVDMGSTTTDIIPIVEGKVVAEKTDLERLMNHELLYVGTLRTPISHLGNTISFKGVDTNVSSEYFAITADISVVLEKVTTEEYTCDTPDGKGTDKRSSLVRISKVLCSDLDQISEIDAENIAKNYYELWKELILENVENVAEKYGSKKVVITGLGENILKDALADFEVISVAERYGKDVSLATPSFAVAELLKNELLEHHHHHH”: the “soluble on expression in E. coli” value is recorded as “soluble”.

For the sequence “MILKPIGVVKSPFKTQNDAPRQGRFSDAVSEIAIFDEYADGLHKIENLRHIIVLYWMDKASRDKLRVVPPGETEERGVFTTRSPSRPNPIGLCVVEILEVERNRLKVRWLDALDGSPVIDIKKYSPEIDCVNQLEGQQPLEHHHHHH”, the “soluble on expression in E. coli” value is reported as “soluble”.

With “MILLIDNYDSFTFNLEQYLAEFSEVVVKRNDAADLIKIAALADGIVLSPGPGKPSDAGLLEEVVAKFAKEKPLLGICLGHQAIGEVFGGEVKRAAKIRHGKVSTMRQTAGAIFANLPEEMPVMRYHSLIVDKNTLPDVLEVLAIATDDSEVMAMKVKDYPVYGLQFHPESIGTNDGKQMMENFIHIVEGARENGNLTTKSI”, the “soluble on expression in E. coli” value is reported as “not soluble”.

For “MILPDRKQILDRELIRRIADTTISGSGHSDGLSEYASIRKAAFAFVESAVLGDQAYSPIENAELAFIVWILAALDENIITARTIIKARDTVEKQLRLVEHYEDLEEFGSRLGIEISVFGEQIGKDHLYRIGVADFATYASRVTGSKYRLSNQIVREGYVYVDEDVMAKVLREAFVSFMFDTLDQIRKEDAIETIKSVLDDLEKIRESYRKAHNVRMIAGKGDASMFPPCMKEIIKNLESGVNVSHMGRLALASFLHKAGYSEDEIVPYFRNAPDFDENITRYQIKHISGEISGTEYTPPKCETMRSNHLCYMDDDPLCHREWMKHPLTYYEVKRRNRKIRLEHHHHHH”, the “soluble on expression in E. coli” value is listed as “soluble”.

On to “MILTEVSQPTEGIKLATTNVQAFFKIDSLGNGTLYITDSAVIWISSAAGTKGFSVAYPAIVLHAISTDVSVFPSEHIFVMVDQRKSVRRRRRAPVLRTIQEDDEQRGLELAAAELEDEESDDDEEEPALEIRFVPDDKDSLSQIYHQIAVGQEENPEEDDPMYDDEEEEMEEEMGDDGQGQSGQWFTADNIDHMQMSEEGLANMQRIFGRGDQHQHHHNEDESME”, for which the “soluble on expression in E. coli” value is on record as “not soluble”.

Take “MILTFNPGKLERQEFFKELINYLWIHDDVTLRKIKSHFTDYSKIDRLLEEYINHGYILRQNKRYSLNLPFLSSLDGLVLDDLVFIDSDSQIYQLLQKRKFVTNLDNPTNHLVFVEETDFERNTLTLSNYFYKLTNGYPLSREQKKLYQLLGDVNSEYALKYMSSFILKFLRKDSVKQKRTVIFIQALELLGYISLNQDTTYRLNAKLDVEALKIYLT”: the “soluble on expression in E. coli” value is “not soluble”.

For the sequence “MIMAANEKEMRIKIIKDGPYRVTGGVPLLEQVIVTDDDGHTRDLIDIKEYPRREAYILCRCGSSENKPFCDGAHRKVGFDGSETASRTPYLEKAETFEGPDLKLTDVYELCDHSRFCQRSGGIRDLIQKSDDPEARQTAIEEAMICPSGRLVLWDKKTGKPFEKEFDPSIILVHDKQKGCEGPLWVRGGVPIESADGSMYEPRNRVTLCRCGKSENKPYCDGSHWMNSQQKLEFRKKWGLELEHHHHHH”, the “soluble on expression in E. coli” value is “not soluble”.

The values are drawn from the DeepSol protein solubility set.
